According to patent publication EP0583821A1, “Atriopeptins, guanylate cyclase activators, and phosphodiesterase inhibitors as treatment for glaucoma, hydrocephalus and cerebral edema (cranial fluid volume dysfunction)” (THE GENERAL HOSPITAL CORPORATION, priority 1987, dated 1988):

Molecular target: T1, guanylate cyclase (Oryctolagus cuniculus, UniProt G1TXB5)
T1 sequence (G1TXB5 28-1056): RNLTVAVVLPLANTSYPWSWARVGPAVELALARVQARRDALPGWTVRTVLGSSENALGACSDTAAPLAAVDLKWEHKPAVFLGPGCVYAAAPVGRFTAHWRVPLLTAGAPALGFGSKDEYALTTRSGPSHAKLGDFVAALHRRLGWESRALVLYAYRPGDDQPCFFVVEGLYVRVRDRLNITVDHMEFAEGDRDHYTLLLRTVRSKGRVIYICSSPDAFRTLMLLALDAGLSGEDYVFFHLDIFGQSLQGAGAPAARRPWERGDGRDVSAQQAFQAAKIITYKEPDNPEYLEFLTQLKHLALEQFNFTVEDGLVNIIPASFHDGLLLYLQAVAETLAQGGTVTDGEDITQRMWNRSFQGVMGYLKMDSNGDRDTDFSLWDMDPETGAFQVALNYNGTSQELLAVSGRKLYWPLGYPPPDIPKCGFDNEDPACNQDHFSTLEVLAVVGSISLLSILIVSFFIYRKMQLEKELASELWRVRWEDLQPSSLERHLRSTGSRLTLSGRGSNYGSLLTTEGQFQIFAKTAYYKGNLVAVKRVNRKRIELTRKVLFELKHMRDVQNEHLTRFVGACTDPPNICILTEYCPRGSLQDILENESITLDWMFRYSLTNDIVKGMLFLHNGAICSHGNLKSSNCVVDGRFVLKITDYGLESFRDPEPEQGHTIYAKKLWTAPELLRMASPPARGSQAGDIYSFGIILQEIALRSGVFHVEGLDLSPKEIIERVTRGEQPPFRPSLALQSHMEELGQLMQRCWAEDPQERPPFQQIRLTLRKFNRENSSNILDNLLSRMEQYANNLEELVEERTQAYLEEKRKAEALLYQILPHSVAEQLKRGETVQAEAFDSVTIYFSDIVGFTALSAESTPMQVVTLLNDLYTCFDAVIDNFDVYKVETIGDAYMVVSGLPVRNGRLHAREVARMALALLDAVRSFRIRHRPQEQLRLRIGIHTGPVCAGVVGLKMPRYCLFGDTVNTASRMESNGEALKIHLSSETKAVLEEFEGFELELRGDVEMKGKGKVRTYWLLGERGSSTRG
Assay: Atriopeptin-activated guanylate cyclase in kidney membrane (P1) fractions
Assay type: biochemical, rabbit
Design: tissues were homogenized (10 mg wet weight per milliliter); from tissue; host or cells: rabbit cerebral microvessels, choroid plexus, kidney, ciliary process, pia-arachnoid, cerebellum; 100,000 g P1 pellet
Conditions: mean ± range of duplicate determinations
Procedure: The effect of rANP on membrane-bound guanylate cyclase and adenylate cyclase activity in various brain-barrier tissues and tissue fractions from rabbit was compared with its activity in cerebrum and cerebellum. Guanylate cyclase was measured as the rate of cyclic GMP formation by modifications of the technique of Waldman et al., supra, incorporated herein by reference. Briefly, tissues were homogenized (10 mg wet weight per milliliter) in 50 mM tris-HCl, pH 8.0, 1 mM EDTA, 1 mM dithiothreitol, and 250 mM sucrose and centrifuged at 100,000g to obtain a P1 pellet. Reaction tubes contained (in 0.3 ml), 50 mM tris, pH 7.6, 6 mM MnCl₂, 0.5 mM 3-isobutyl, 1-methylxanthine (IBMX), 10 mM theophylline, 3 mM GTP, hormone (in 0.03 ml containing 2.5 mM ascorbic acid and 0.1% bovine serum albumin), and 0.06 ml of P1 fraction (40 to 60 ug of protein). The reaction (4 minutes at 30°C) was started by addition of GTP and terminated by addition of 0.3 ml of 150 mM sodium acetate (pH 4.0) and boiling for 3 minutes. Cyclic GMP formed was subsequently measured by radioimmunoassay as described in example 6, infra. Under these conditions, guanylate cyclase activity was linear with time and tissue concentration. Adenylate cyclase activity in P1 fractions was measured according to the method described by Nathanson, et al., Science; 204:843 (1979); Mol. Pharmacol. 18:199 (1980), see Figure 1C . […] Neurosci. Abstr., 10, 899 (1984); Nathanson, et al., Soc. Neurosci. Abstr., 12, 1257 (1986), incorporated herein by reference, but with a lower concentration (0.025%) of trypsin and a rotating tissue tumbler which allowed cleaner fractionation of epithelial cells from erythrocytes and vascular components.
Ciliary process tips were obtained from male, 3-4 kg, New Zealand white rabbits, immediately following sacrifice with an overdose of ether, as described in Nathanson, Invest. Ophthal. Vis. Sci., 21:7981 (1982). […]
Atriopeptin-activated guanylate cyclase activity was measured as the rate of conversion of GTP to cyclic GMP. […]

Substance: rANP 13-28 (DRIGAQSGLGCNSFRY; Atrial natriuretic peptide; UniProt P01161 135-150, looked up, fragment)
- Vmax Stimulation (%) of Guanylate Cyclase Kidney: 54 ± 4%

Substance: Ser-Leu-Arg-Arg-atriopeptin III (APIII) [rANP 1-28]
- Vmax Stimulation (%) of Guanylate Cyclase Kidney: 129 ± 25%
